Data on one substance can be found in patent publication US20120207670A1.

The target in this test is IL-12 (mouse; target of the rat anti-mouse antibodies in the in vitro neutralization studies) (mouse) (UniProt P43432). Briefly: cell-based or functional assay.
Chain of IL-12 (mouse; target of the rat anti-mouse antibodies in the in vitro neutralization studies) (mouse) (P43432 23-335, chain 1 of 2): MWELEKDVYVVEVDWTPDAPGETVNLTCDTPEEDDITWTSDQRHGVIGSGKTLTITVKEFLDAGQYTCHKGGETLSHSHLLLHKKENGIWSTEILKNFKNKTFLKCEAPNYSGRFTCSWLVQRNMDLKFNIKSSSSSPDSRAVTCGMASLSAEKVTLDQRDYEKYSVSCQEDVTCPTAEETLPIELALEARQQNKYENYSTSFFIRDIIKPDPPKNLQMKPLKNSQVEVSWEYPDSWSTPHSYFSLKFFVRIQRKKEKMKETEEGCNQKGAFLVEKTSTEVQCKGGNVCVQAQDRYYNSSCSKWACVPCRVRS
Chain of IL-12 (mouse; target of the rat anti-mouse antibodies in the in vitro neutralization studies) (mouse) (P43431 23-215, chain 2 of 2, further chain): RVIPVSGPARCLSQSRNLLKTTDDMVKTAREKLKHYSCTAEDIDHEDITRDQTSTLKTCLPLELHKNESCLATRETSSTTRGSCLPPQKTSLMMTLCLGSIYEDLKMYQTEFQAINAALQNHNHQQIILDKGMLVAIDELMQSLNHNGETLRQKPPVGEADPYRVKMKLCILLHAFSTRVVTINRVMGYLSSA

“C17.8 (rat anti-mouse IL-12/IL-23p40, IgG2a) (antibody)” had an in vitro neutralization of IL-12 (fold (against anti-p35 mAb C18.2)) of 5.
